Target: T1, A33 antigen (Homo sapiens, endogenous on SW1222 and …, UniProt Q99795)
T1 construct: A33 antigen on human colorectal tumour cell lines; also called the antigen recognised by A33; source: endogenous, on SW1222 and Colo205 human colorectal tumour cells
Experiment: flow cytometry on cells; Scatchard analysis: FITC-labelled antibodies titrated on 2.8 x 10^5 SW1222 cells, 2 h on ice, 350 ul PBS with 5% FCS and 0.1% sodium azide; fluorescence per cell calibrated with standard beads; linear regression
Conditions: one partner purified

T1 sequence (Q99795 22-319): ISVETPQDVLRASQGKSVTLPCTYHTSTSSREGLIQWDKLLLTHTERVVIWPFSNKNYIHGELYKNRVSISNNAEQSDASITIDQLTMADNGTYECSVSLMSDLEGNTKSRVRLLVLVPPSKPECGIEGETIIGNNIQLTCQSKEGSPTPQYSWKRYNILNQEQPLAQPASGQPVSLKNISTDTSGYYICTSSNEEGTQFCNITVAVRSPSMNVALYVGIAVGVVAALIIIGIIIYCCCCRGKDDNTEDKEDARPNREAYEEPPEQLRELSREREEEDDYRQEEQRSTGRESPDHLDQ

Kd: 1.28 nM
B1: murine A33 IgG (antibody, V domains shown)
VH: EVKLVESGGGLVKPGGSLKLSCAASGFAFSTYDMSWVRQTPEKRLEWVATISSGGSYTYYLDSVKGRFTISRDSARNTLYLQMSSLRSEDTALYYCAPTTVVPFAYWGQGTLVTVSA
VL: DIVMTQSQKFMSTSVGDRVSITCKASQNVRTVVAWYQQKPGQSPKTLIYLASNRHTGVPDRFTGSGSGTDFTLTISNVQSEDLADYFCLQHWSYPLTFGSGTKLEVK
notes: the scan text reads CAPr at Kabat 92-96, restored to CAPTT from the hA33 line (94-102 are said to be murine); mouse gamma-2a heavy chain constant region ('the murine y-2a of the parent antibody'); mouse light chain constant region; IgG2a; also called mA33; mouse A33; copies: 2 + 2

Reference: paper PMC2034099, “Preparation and preclinical evaluation of humanised A33 immunoconjugates for radioimmunotherapy” (British Journal of Cancer, 1995)
